The test has as its target recombinant SARS-CoV-2 RBD of original WT strain (SARS-CoV-2, UniProt P0DTC2 319-541). Briefly: SPR. (In general: SPR reads the build-up and loss of mass on a sensor chip optically.)

Here are results for one molecule from publication PMC9822811 (2023).

B1: REGN10987 (antibody, V domains shown)
VH: QVQLVESGGGVVQPGRSLRLSCAASGFTFSNYAMYWVRQAPGKGLEWVAVISYDGSNKYYADSVKGRFTISRDNSKNTLYLQMNSLRTEDTAVYYCASGSDYGDYLLVYWGQGTLVTVSS
VL: QSALTQPASVSGSPGQSITISCTGTSSDVGGYNYVSWYQQHPGKAPKLMIYDVSKRPSGVSNRFSGSKSGNTASLTISGLQSEDEADYYCNSLTSISTWVFGGGTKLTVL
With B1, the dissociation constant (Kd) worked out at 1.62 nM.

In general, Kd refers to a measure of binding affinity in units of concentration.
